The results in this text go back to US20210355225A1 (OSE IMMUNOTHERAPEUTICS, published 2021).

The target of the experiment is T1, Recombinant hPD1-His (Sino Biologicals, reference […]-H08H) (human, UniProt Q15116 25-167).
T1 construct: Bought reagent; also called human PD1 recombinant protein; PD-1 recombinant protein; not shown: histidine tail
Description: Biacore competition with PDL1 for PD1, relative response in % of no Ab.

T1 sequence (Q15116 25-167): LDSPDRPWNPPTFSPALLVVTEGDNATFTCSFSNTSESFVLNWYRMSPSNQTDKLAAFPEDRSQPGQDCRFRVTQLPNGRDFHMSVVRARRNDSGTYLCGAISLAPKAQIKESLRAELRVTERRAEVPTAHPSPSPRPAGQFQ

B1: HCLC (antibody, human IgG4 S228P, kappa, V domains shown)
VH: QIQLVQSGSELKKPGASVKVSCKASGYTFTHYAMNWVRQAPGQGLEWMGWINTNTGEPTYAQGFTGRFVFSLDTSVSTAYLQISSLKAEDTAVYYCAREREPGMDSWGQGTLVTVSS
VL: DVVMTQSPLSLPVTLGQPASISCRSSQSLVHANGNTYLEWYQQRPGQSPRLLIYKVSNRFSGVPDRFSGSGSGTDFTLKISRVEAEDVGVYYCFQGTHVPNTFGQGTKLEIKR
notes: also called humanized anti-PD1 variant HC heavy chain + LC light chain
B1: the binding result was “binds”.
